The NTF2 design screens of Basanta et al. (2020)

Assay: protease stability score; higher = more stable; yeast display proteolysis, trypsin and chymotrypsin;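 note: relative to predicted unfolded state with 0 unfolded-like and 1 meaning tenfold more protease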

Sequence: AEQHEQAREFLRNWLEAYHTGDEDLLRSMFDPNVRLHVDGRVIIGREDIIRERLHFLENHGITFHFRIQDMSVQGEKVIFDVEFHYRYNGQDYHKKVWLFVEKINGRWFMTQININ
- protease stability score: 2.19

Sequence: AREEEIVEEMARLMRHLWTTGDEEKIDEMLDPDVRVEWRVNGVHLENHGRDQFIRILRRFSDEWRLRSLHDETFRIQGDKVEVDSRFDVQVNGQRDILETEFHLVVVDGRIRHVEIIIK
- protease stability score: 1.6

Sequence: DDALRHADTLLDQFEHHMETGDEESMTRLADPDTRTDINGQHFHGRDWWREFMRRVDHHHIRSVDYHSVRLFNGQIHFDVEIDVEIVIGDKRYRTRYHFEVVIVKIDGRWLLHRIKTE
- protease stability score: 0.861

Sequence: DDDAIKRFHEQVDNEQHNNEEEQEKNVDPNATVNVGDKTYHGREKWREVVKRENEEMRVKYQHVTFRRHPGRVIVRFRIVNDHNGKPTETDVNANYQMHNGRIRQVNRRTDG
- protease stability score: 0.225

Sequence: DDDDRKNHEIAKWIWELIETGDEDILQHLADPDYRLVLDFDGVHIHRHGMTRIYHTLERVYREFGADHIHIRSITNINGVNIIDGEVQVNGKHYRLVLIFIVVNGRIKEIRVKKR
- protease stability score: 1.54

Sequence: DDDEEIIERALRLWEKFEQTGDEKRLDEMIDPNVRVNYNGVIHHGRDHLRHFFSRFDHFKRLHIEDSRFFNGKIIIHTRLEGRIGDKERTVNVIIIALKVDGKWFLESWSMS
- protease stability score: 0.618

Sequence: DDDEHDTEKLLTFYSHAERTGDEELLRHLFDPDVKLYIGDKLFIGWRLFKERFRRWVEELGINHIEVHLHRYRIQGDKIDMDTRLELRYDGRTEHVESHVIVRKVDGRWNFERMHFN
- protease stability score: 0.745

Sequence: DDDEHEAKEAIHLWLELFMTGDEESHNRYMDPHVKTKFHFENHHEEYHGREKAIELMRMLGIKHVELRDVSTRVINGRVHIDMEIIVHFDGQEVRVIVLVIVIKINGQWILHEVVIIIK
- protease stability score: 0.933

Sequence: DDDEHNAHHAVEIWIHLLRTGDEHMLERMFDPNTRIRFNGREFHGREEAHRFIEELLRTLGVDHSHITIHDMKIQGNKVHVDTRLTLIVGDKTYSRNTHLVILKVNGRWWLHSMHFN
- protease stability score: 1.41

Sequence: DDDEKDLEKLIREVMEIIWTGDEDTFRHFMDPNTRLFIDGKIIVGMEEIMRRWHELLRKFGVDKIEVRLDDFKIIGNKIELHFEIMIGDKRFKTQTIFEKIDGRWILHSRFIH
- protease stability score: 2.01

Sequence: DDDERALEEAIRIIKEVFKTGDERLHEELFDPNYLLIINGVFYHGREVMRNFHRHWRIRHVEFRRTRVINGRIEMDVHIITDINGQEIRHDSHIYAHKIDGRWIFRSVEHH
- protease stability score: 1.63

Sequence: DDDERDMDLALELIIRTIRTGDWELQSRLIDPHARLHIDGRDLHGMEEYVTILVEHWRRIKGVKVSITLHDRDVFDGVLHLDTEVELDFNGVRLHMKTEIISLKYNGRWFIKEIRVR
- protease stability score: 0.654

Sequence: DDDHKVAEKMNDTFLRLFLTGDFERLWELADPHVRILFNGVEFHGREQMSTVIEHHLRQMRVHDVTIEHITWQGDKLHVHSILRTRVGDKKVDDHIEVNILKVDGKWIVKEVKIL
- protease stability score: 2.01

Sequence: DDDHLRKVEDFMRAQLEGDPDRLKQLADPNVRMNVGEKKVHGMQDIATEQASTYKTARYEIKSLDSKTEGDKVVITMRVQADNNGQPHDETFHLKARLENGKIVEQSKENDG
- protease stability score: -0.531

Sequence: DDDKKRAEELLRLWHEFFETGDEHDMNRNLDPHAKVDVNGKEIHGREFVSEWLVRKVKFFKGIKLEHKRSHFVNGRAHLHTEINFDGVEFEVIIHSDKINGRWLVHEIIIK
- protease stability score: 1.17

Sequence: DDDKREMEEIARRWVESLETGDEDTLTKLADPNTKLELLIDGRENNLIGMRYWLEFLERFKNVTIKFKRMRVQGDKADIETEVNINGQRFRVRIELWVIDGRLHTLHIRIE
- protease stability score: 1.23

Sequence: DDDQKEMERFVREFVHSFMTGDEENIRRLADPNARTYVNGKLRHGMDNFLHLWRQIRIDIQHVKVDDMHLVNGRIYIRVTVHGIFTFDGVHVRDEKDQHWELHVVDGRAKYISIHVH
- protease stability score: 1.62

Sequence: DDDRRSLEDWIKISIESMKTGDEDEFEHLADPNPRMVVGDKHLVGRERAVHVFREWRVKHMTVKDHPIIDGRIEMDTRVTVHFNGRDIELELRIIIHKVNGKWLVEEIIIK
- protease stability score: 0.381

Sequence: DDDTREFEKWEKIWVEYYQTGNFDHLRRLIDPNVRSIVDGKEFHGREAMASMILEETKRADHIEMDLTRHEIIGEKMIIHSRIEIQVGDYHDHYRLELESIKVNGKWIVHRESYR
- protease stability score: 0.039

Sequence: DDEDEEVKLIIEEELHLARTGDFERLLELHDPDVRIIFDGREWHGREALRWLYRHLGIDRIDLHFEDVRVINGRVEMDVTENINGRKIKSRIIARKYDGRWINEQVDIK
- protease stability score: 2.28

Sequence: DDEDEHWETLARHFVDNYLTGDWKRLWEMLDPNARLNVNGKEYHGREVIIRVLRKELEDLGVDVVDVEDIRVYGNKVDFHMTVRVGDKERRLEIDVHIVDGRIRKIIIRID
- protease stability score: 2.2

Sequence: DDEDHELEWMYRIMLRILETGDEDEYKKFADPNTRLLIDFNGRIIDDHGREHVKRSIFEWLEHARIRRKEKKTERHIDGRVILHMRMDVDVNGRRIDRDVLIIIVVINGKFREVDIQYR
- protease stability score: 0.931

Sequence: DDEDKRLETRARLWFEHFFTGDFEAMLWYLDPDTRLHINGREFHGMEHIVHHLEREILHLRVRIHLRRIKIFDGRLIIDIELEVHYGDKTHRTRAEIILIVVNGRIREIEVRES
- protease stability score: 1.5

Sequence: DDEDREAQELLNLYLHAHRTGDEHLLDELVDPHARIIVNGQEIHGRDFLEYLKKFWGITNVNIDIHIDDLKLYDGRIEVETRLILEINGQRYTYSSHEHWHKVNGKWISKRVDFE
- protease stability score: 1.05

Sequence: DDEDRHASKLYHIIVHLEVTGDFEKWRDYADPNVRIVIGDKEFHGRELFMEWLKEIRLERFRIKHIKVIGEKTNSTTSFEVNVNGVRIENDTRIHIHVIDGKVHSVHFEIR
- protease stability score: 1.57

Sequence: DDEDRKKADEMLKALKHGDPDRVRELMDPNAKAVYGDKRIRGRDDFVEDMFRKQREIKIDMKIEEFRVNGNHAVFTVDVIEDKDGRPKRFKARVVITLHNGKIIDIKVEEEH
- protease stability score: 1.49

Sequence: DDEDRKLKHLIELLVHWFLTGDEDALKELADPNTKFDIGDKHYHGMEIVQEIWKRHLEEIRIQHVEIRHVEIQGNKTDITGELHGQIGDKHIRSEVRIHLNIINGRVRSMWFIIH
- protease stability score: 2.49

Sequence: DDEEDHVREMFKLHWDNLRTGDFDKWMNLADPNVRFRYIFNGVDFEYHGRDFVSQILLEIRIDRISIHHVNIFEGHSEIDAHEETTYNGKKTERKVHIELIVFNGRIHELHVEIR
- protease stability score: 0.682

Sequence: DDEEDKAREAFKMLQELVNTGNEELLYQYFDPNYRLDVDGRQIHGREAVVNERRKRFEMWGVEQVRLHIDTWDIIGNKVKLDGHLNFNGVIKKTHIHLLKVNGRWVIESERIE
- protease stability score: 1.08

Sequence: DDEEEDYERAFKIFIDFVKTGDWRLLKELADPNVRNVIGDKEFMGRETFTKWVFDVRAQFDHVEIRIRDFEIQGNKLILYTELHLHQGDKSLTLELRIVILKVNGKWLMHSFRLQ
- protease stability score: 1.4

Sequence: DDEEEEAKEMSEHTLQWFFTGDEEKLYKYIDPDVRVRVLIDGRELVYHGREVFLEFLKRQIEELGIDHVHLRRRHVIDGVLEVHGTINVDGREIELIIFADKYNGRWRLKLIEINVR
- protease stability score: 1.69

Sequence: DDEEEEEEKFRKILEEALETGDERILHHFADPHVQTHFNGQTFHGREEWIKILRKLGVERVHLNIKRVEVYGDKIHIDGELHFDGRTHKVELVALKVDGRWLLHKIVIR
- protease stability score: 1.68

Sequence: DDEEEESEHAVKFWKHAQETGDFDEMRRLADPNVKVEIGDKELHGRKDFTRLLREHKEKLGVERIEVFIHDMHPINGRVTVHVIIEYNGQRQWFHVIFLKINGRWFIESMHIT
- protease stability score: 0.378

Sequence: DDEEEFIRKLFEDFYRAFLTGDWHELFELMDPNTRTEINGVHFHGRHIISEYLVTHIERVDHVSITLTRLDKIGDYLIIDSHLRQDVNGKKIHVRLHMHAHKIDGRWKIHRFEFE
- protease stability score: 1.34

Sequence: DDEEEIFKKAIEDFIRWERTGDWRQLVENLDPNTRVDVNGVYIHGRERIAEWIKHHIERVKNVKHHKHDEKVQGDKLHLDGVIIIDGVRFDVHLIIVVINGQYKHHEVRIR
- protease stability score: 1.17

Sequence: DDEEEILKEFVRIFREVWLTGDFHALLRLADPNVRQELHVNGREIHNHGREAMSDWHHFMRKFFKGMTIIEHTSYLIDGRIHIEGTWSFDGVDFRTHIHQVVIDGRIEHVQLTIH
- protease stability score: 0.177

Sequence: DDEEEINRRIAETFINNVKTGDEHSMREMMDPNTRLIVGDKHNHGWKEVEKFWREWRRHAGVDHIHVDDVRVIGNKVEIDETINQGDKFRDVRISIITINGRITELRIEIR
- protease stability score: 1.49

Sequence: DDEEEVAERAARIVHHLYLTGNPEELLKYFDPDVRWIFNGKTSIGRENVVEMFDDVHRMFGIDVRTSDINSYDIVDGRIEVDSRLHLHINGRKINHHFRIESIKINGRWWLKRIDID
- protease stability score: 0.933

Sequence: DDEEHASRNAYRILKRVVETGDWREFRKMMDPDARVLINGVQLHGREAVHHLLERVDHLHDIELRHIHTQGNKIHIEISVDGLIDGQKTETERRILVTKFNGRWKVEQIEIG
- protease stability score: 0.628

Sequence: DDEEHDARRAVELHNEIERTGDEHEMHRFADPDVRIFIGDKELHGRETWSKYLSHVLERLGINHLHITIEHLHLQGNKMRLHGTIRMKIGDKRYEIHVEVYITKINGRWHLHTIRND
- protease stability score: 0.363

Sequence: DDEEHEARLAVHELREVQRTGDERQLHELIDPDTRFEFPGVTLHGRENMVEWLARIKNLRVESIHERHISIYNGQVDFDMEMHVRDGNKHRTEKWRIIMYKFDGRWSIKSFESR
- protease stability score: 0.961

Sequence: DDEEHEARRVLEELIRVWITGNEELEDRLMDPNVRFVYGEYDLHGMEHFRHLLTVLKDQADHVSDVKLHDLEIQGDKVITRSVVDGVFNGRRFHRSQIIILIKVNGKWRIKSLHIH
- protease stability score: 1.33

Sequence: DDEEHSAENFARHFMENLRTGDEDRLHELADPNMQIILHFDGQHEVRHGWESYEYLVRLFGVKHIHINHFEIFYVNGRVHLRIEGHIHQGDKYREVYIHIDINKVNGRWHVESVELRIH
- protease stability score: 0.93

Sequence: DDEEKEDKDAIKLLVKFWETGDWENISRMMDPHVRLEVGEFTYHGREHFSRLYLEQYERVDHIQFRIHHLEVVGDKMTADTEVHIDINGRHIRLRTHINMIKINGRWRLHSVLIN
- protease stability score: 1.48

Sequence: DDEEKEHLEMLKQFWENSYTGDERTLLHLLDPHARFILEFNGKSLQYHGREEVARFLRWLLEHIRVKDSHIHDIDVIGEKAVVDGRMHGEIDGREVEKETRLFIVVIDGRITKVFIEVR
- protease stability score: 1.6

Sequence: DDEEKETEDFLRLLIEFLLTGDEERLKDLLDPNTRLEYGEFDFVGREHVLEWRHHYRKILGAKHRELRIEHLHVIDGRVNAISRVHLRFDGREYSHETIIIIEKVNGKWLLHSEEIR
- protease stability score: 1.33

Sequence: DDEEKEVKILTEIWWKSVRTGDEEFWDRLADPHTRLEILINGRTHEFHGMDEYNRILHHLRIEDRRTRSINNIDGKAQIDGFLVFRINGRSFETKVEVNISVVNGKVKHHKIIIE
- protease stability score: 1.3

Sequence: DDEEKHAHDILRLLFWVLMTGDEEIIRELFDPNVRVHIGDKEIHGWKELSRHTKEMRHHVRDTDEKDRRSDEDEIRLHGELDGELHFDGKRVKHRMDIHIIAVKIDGRWFFKSLYVR
- protease stability score: 0.868

Sequence: DDEEKLSKDASELWKKSMLTGDEDTLMKLADPHTRLEIRIGDKTDEIHGMEWVAHLLTNLGIDHFILRDEHIQGEKVIIRGEIDINGRTHESIIIVIIINGRLKSVTFIKL
- protease stability score: 0.94

Sequence: DDEEKMFVHLAKLFTDIMTTGDEKFLDELVDPNVRFDVNGRLRVGREELKKAIQDWWREIRVDEILIHEIDVIDGRLRMDGRMRGDIDGQETYLELHIILHVIDGRMTHVEIRHQ
- protease stability score: 2.38
